Paper PMC2635478 (Traffic (Copenhagen, Denmark), 2008)
Where two headings read alike, the source gives them in different places.

Columns and labels:
SEC [1] = biological target: the molecule itself; test: SEC
SEC [2] = biological target: the molecule itself; test: SEC; remark: listed apart in the source

Protein | stoichiometry N (SEC [1]) | stoichiometry N (SEC [2])
NEM-modified PITPβ (phosphatidylinositol transfer protein beta) in cytosol of NEM-treated HL60 cells (natural protein, human (endogenous in HL60), UniProt P48739 1-271, looked up, C95 alkylated by N-ethylmaleimide (NEM)) MVLIKEFRVVLPCSVQEYQVGQLYSVAEASKNETGGGEGIEVLKNEPYEKDGEKGQYTHKIYHLKSKVPAFVRMIAPEGSLVFHEKAWNAYPYCRTIVTNEYMKDDFFIKIETWHKPDLGTLENVHGLDPNTWKTVEIVHIDIADRSQVEPADYKADEDPALFQSVKTKRGPLGPNWKKELANSPDCPQMCAYKLVTIKFKWWGLQSKVENFIQKQEKRIFTNFHRQLFCWIDKWIDLTMEDIRRMEDETQKELETMRKRGSVRGTSAADV | 2 | –
NEM-modified PITPβ (phosphatidylinositol transfer protein beta) in cytosol of NEM-treated PC12 cells (natural protein, rat (endogenous in PC12), UniProt P53812 1-271, looked up, C95 alkylated by N-ethylmaleimide (NEM)) MVLIKEFRVVLPCSVQEYQVGQLYSVAEASKNETGGGEGIEVLKNEPYENDGEKGQYTHKIYHLKSKVPAFVRMIAPEGSLVFHEKAWNAYPYCRTIVTNEYMKDDFFIKIETWHKPDLGTLENVHGLDPNTWKTVEIVHIDIADRSQVEPADYKADEDPALFQSVKTKRGPLGPNWKKELANTPDCPKMCAYKLVTIKFKWWGLQSKVENFIQKQEKRIFTNLHRQLFCWIDKWIDLTMEDIRRMEDETQKELETMRKKGSVRGTSAADA | – | 2
